From patent US20220380407A1

Legend:
Assay in all cases: cell-based or functional assay
[1] = biological target: Factor Xa (#1063-SE-010, R&D Systems) (UniProt P00742)
[2] = biological target: activated hepsin (#4776-SE-010, R&D Systems) (UniProt P05981)
[3] = biological target: human TMPRSS2 (human) (UniProt O15393)
[4] = biological target: matriptase (#3946-SE-010, R&D Systems) (UniProt Q9Y5Y6)
[5] = biological target: recombinant N-terminal His-tag HGFA serine protease domain (UniProt Q04756)
[6] = biological target: recombinant thrombin (#1473-SE-010, R&D Systems) (UniProt P00734)
[7] = biological target: KLK5 (#1108-SE-010, R&D Systems) (UniProt Q9Y337)
Sequence of KLK5 (#1108-SE-010, R&D Systems) (Q9Y337 23-293 limits assumed): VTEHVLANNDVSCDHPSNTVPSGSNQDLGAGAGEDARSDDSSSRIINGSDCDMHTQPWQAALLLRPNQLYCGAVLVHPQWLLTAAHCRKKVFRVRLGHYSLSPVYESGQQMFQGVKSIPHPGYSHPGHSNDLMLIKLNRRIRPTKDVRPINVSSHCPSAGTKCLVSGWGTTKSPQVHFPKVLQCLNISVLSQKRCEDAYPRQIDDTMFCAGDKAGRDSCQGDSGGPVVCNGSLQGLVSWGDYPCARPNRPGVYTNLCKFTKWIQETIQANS

Sequence of matriptase (#3946-SE-010, R&D Systems) (Q9Y5Y6 615-855 limits assumed): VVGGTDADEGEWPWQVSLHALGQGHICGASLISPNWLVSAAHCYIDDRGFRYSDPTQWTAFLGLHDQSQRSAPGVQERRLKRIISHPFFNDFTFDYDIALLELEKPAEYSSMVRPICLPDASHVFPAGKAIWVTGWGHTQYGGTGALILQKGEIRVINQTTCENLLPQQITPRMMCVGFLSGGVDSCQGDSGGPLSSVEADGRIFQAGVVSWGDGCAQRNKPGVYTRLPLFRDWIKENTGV
Sequence of recombinant N-terminal His-tag HGFA serine protease domain (Q04756 373-655, form in doubt): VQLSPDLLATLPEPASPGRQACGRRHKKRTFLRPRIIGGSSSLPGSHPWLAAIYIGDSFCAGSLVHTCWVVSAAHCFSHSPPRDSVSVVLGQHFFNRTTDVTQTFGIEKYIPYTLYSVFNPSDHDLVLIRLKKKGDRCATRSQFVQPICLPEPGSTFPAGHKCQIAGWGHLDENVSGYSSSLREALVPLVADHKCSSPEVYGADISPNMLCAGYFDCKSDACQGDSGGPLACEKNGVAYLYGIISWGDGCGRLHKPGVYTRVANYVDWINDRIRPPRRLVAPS
Sequence of activated hepsin (#4776-SE-010, R&D Systems) (P05981 45-417 limits assumed): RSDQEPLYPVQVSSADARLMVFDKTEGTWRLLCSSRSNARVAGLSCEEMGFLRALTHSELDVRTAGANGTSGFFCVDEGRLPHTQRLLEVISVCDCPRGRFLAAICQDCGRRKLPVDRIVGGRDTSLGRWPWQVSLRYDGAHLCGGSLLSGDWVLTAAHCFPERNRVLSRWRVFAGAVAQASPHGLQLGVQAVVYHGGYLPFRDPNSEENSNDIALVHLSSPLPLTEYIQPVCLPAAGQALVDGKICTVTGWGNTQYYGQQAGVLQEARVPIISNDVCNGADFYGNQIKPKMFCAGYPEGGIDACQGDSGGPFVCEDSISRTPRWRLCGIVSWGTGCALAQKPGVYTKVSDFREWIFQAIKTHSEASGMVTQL
Sequence of Factor Xa (#1063-SE-010, R&D Systems) (P00742 41-488 limits assumed): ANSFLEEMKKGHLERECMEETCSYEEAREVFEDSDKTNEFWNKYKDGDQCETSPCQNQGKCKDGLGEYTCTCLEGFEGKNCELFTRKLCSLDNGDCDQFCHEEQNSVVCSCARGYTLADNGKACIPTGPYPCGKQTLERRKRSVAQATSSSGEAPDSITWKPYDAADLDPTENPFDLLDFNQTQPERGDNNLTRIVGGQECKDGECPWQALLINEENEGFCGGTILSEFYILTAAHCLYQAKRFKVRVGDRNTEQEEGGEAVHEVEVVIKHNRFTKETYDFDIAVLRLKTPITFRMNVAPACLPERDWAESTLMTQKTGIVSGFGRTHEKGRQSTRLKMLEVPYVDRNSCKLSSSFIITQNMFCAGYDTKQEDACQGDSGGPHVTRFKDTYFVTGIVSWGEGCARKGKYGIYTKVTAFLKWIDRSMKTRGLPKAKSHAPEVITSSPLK
Sequence of human TMPRSS2 (human) (O15393 whole entry): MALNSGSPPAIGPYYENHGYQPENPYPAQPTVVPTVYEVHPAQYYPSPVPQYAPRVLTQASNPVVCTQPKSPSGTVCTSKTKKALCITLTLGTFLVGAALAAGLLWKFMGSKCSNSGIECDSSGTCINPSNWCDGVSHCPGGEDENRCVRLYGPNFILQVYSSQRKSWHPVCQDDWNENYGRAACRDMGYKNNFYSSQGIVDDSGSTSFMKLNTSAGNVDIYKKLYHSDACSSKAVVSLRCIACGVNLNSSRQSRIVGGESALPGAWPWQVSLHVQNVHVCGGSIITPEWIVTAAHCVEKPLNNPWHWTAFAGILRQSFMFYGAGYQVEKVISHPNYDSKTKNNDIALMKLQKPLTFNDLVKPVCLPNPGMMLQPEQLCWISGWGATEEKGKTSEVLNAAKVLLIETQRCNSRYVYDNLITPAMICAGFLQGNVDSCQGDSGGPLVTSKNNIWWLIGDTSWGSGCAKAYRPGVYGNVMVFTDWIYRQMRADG

| Factor Xa* (IC50 nM) [1] [nM] | Hepsin (IC50 nM) [2] [nM] | Hepsin IC50 [2] [nM] | Calu-3 EC50 [3] [nM] | Matriptase (IC50 nM) [4] [nM] | Matriptase IC50 [4] [nM] | HGFA (IC50 nM) [5] [nM] | HGFA IC50 [5] [nM] | Thrombin* (IC50 nM) [6] [nM] | KLK5 IC50 [7] [nM] | Substance |
| --- | --- | --- | --- | --- | --- | --- | --- | --- | --- | --- |
| 8810 | 102 | 20 | 565 | 80.2 | 14 | > 20000 | > 20000 | > 20000 |  | Cyclo(allylLY)R-kbt, VD4051 (peptide) |
|  |  |  |  |  |  |  |  |  | > 20000 | Leupeptin (peptide) |
